This note sets out measurements from US20180155451A1 (published 2018).

Where a chain is given by its changes, count along the chain named.

Experiment [1] addresses T1, FcγRIIa R (extracellular domain with a His tag at the C terminus) (human, UniProt P12318 34-217).
T1 construct: extracellular domain; expressed in FreeStyle293 cells; also called FcgRIIa R; FcγRIIa type R; not shown: His tag at the C terminus
T1 sequence (looked up): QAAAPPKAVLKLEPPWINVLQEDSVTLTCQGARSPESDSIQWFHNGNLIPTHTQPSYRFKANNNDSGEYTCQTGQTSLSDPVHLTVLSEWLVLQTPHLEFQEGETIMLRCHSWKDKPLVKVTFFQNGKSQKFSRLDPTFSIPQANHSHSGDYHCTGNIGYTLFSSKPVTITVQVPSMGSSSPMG
The experiment is described as follows: SPR Biacore, relative binding. For orientation: SPR reads the build-up and loss of mass on a sensor chip optically.

The target of a further experiment is T2, FcγRIIa H (human, UniProt P12318 34-217).
T2 construct: extracellular domain; also called FcgRIIa H type; 2aH; not shown: His tag at the C terminus
T2 sequence (looked up): T1 sequence (looked up) with R134H
The experiment is described as follows: SPR Biacore, relative binding.

B1: GpH7-B3 variant P238_03V/GpL16-k0 (antibody, human IgG1, kappa)
heavy: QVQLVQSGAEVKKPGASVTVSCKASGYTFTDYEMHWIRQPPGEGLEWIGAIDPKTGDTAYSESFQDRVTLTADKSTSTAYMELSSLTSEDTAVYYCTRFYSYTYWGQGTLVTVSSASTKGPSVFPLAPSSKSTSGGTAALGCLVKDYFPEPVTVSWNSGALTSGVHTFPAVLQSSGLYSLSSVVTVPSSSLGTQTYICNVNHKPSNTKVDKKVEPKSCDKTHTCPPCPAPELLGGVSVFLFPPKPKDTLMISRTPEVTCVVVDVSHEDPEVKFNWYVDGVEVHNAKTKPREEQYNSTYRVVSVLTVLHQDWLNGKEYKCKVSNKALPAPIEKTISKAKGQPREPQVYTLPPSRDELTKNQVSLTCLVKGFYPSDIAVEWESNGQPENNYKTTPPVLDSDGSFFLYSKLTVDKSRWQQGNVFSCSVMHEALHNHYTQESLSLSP
light: DIVMTQSPLSLPVTPGEPASISCQASESLVHSNRNTYLHWYLQKPGQSPQLLIYKVSNRFSGVPDRFSGSGSGTDFTLKISRVEAEDVGVYYCSQNTHVPPTFGQGTKVEIERTVAAPSVFIFPPSDEQLKSGTASVVCLLNNFYPREAKVQWKVDNALQSGNSQESVTEQDSKDSTYSLSSTLTLSKADYEKHKVYACEVTHQGLSSPVTKSFNRGEC
notes: homodimerized; mutation in both H chains; also called Ho Ab
As for B1, in experiment [1], the Ho/Con_2aR is 116 % of GpH7-B3/GpL16-k0 (=100).

B2: GpH7-A5/GpH7-B3 variant T335_16H/GpL16-k0 (antibody, human IgG1, kappa)
heavy 1: not shown
heavy 2: not shown
light: B1 light
notes: also called He Ab T335_16H
For the molecule B2, the He/Con_2aH in the experiment with FcγRIIa H is 105 % of GpH7-A5/GpH7-B3/GpL16-k0 (=100).

B3: GpH7-A5/GpH7-B3 variant T335_19Q/GpL16-k0 (antibody, human IgG1, kappa)
heavy 1: not shown
heavy 2: not shown
light: B1 light
notes: also called He Ab T335_19Q
With B3, the He/Con_2aH with FcγRIIa H was 103 % of GpH7-A5/GpH7-B3/GpL16-k0 (=100).

B4: GpH7-A5/GpH7-B3 variant S324_20W/GpL16-k0 (antibody, human IgG1, kappa)
heavy 1: not shown
heavy 2: not shown
light: B1 light
notes: also called He Ab S324_20W
Turning to B4, in the experiment with FcγRIIa H, the He/Con_2aH is 103 % of GpH7-A5/GpH7-B3/GpL16-k0 (=100).

B5: GpH7-B3 variant K326_15Y/GpL16-k0 (antibody, human IgG1, kappa)
heavy: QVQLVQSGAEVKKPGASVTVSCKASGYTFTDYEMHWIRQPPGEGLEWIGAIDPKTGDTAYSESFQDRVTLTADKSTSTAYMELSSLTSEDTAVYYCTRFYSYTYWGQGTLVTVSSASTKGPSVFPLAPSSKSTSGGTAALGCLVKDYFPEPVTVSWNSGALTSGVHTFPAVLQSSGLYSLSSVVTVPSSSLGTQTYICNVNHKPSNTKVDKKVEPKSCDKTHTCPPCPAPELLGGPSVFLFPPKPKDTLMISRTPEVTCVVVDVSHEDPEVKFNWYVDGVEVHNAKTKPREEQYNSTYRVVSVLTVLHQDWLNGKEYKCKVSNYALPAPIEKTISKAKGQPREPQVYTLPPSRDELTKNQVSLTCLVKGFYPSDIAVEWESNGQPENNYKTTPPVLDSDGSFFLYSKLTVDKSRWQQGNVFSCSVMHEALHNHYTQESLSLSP
light: B1 light
notes: as for B1
As to B5, in experiment [1], the Ho/Con_2aR was 134 % of GpH7-B3/GpL16-k0 (=100).

B6: GpH7-A5/GpH7-B3 variant L328_06M/GpL16-k0 (antibody, human IgG1, kappa)
heavy 1: not shown
heavy 2: not shown
light: B1 light
notes: also called He Ab L328_06M
Turning to B6, the He/Con_2aH with FcγRIIa H is 104 % of GpH7-A5/GpH7-B3/GpL16-k0 (=100).

B7: GpH7-B3 variant I332_06M/GpL16-k0 (antibody, human IgG1, kappa)
heavy: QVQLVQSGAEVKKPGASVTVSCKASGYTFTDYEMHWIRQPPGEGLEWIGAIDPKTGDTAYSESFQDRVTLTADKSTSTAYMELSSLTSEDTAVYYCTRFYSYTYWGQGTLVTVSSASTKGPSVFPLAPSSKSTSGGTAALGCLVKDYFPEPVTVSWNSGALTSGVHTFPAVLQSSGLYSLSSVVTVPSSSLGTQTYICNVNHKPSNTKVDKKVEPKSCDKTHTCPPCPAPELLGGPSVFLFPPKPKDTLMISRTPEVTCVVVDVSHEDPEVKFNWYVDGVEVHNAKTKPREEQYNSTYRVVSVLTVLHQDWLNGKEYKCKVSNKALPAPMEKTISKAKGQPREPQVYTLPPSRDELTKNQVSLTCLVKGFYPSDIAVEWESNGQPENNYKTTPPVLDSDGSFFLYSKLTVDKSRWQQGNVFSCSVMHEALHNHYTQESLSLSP
light: B1 light
notes: as for B1
B7: the Ho/Con_2aR in experiment [1] is 105 % of GpH7-B3/GpL16-k0 (=100).

B8: GpH7-A5/GpH7-B3 variant T335_15Y/GpL16-k0 (antibody, human IgG1, kappa)
heavy 1: not shown
heavy 2: not shown
light: B1 light
notes: also called He Ab T335_15Y
On to B8, for which the He/Con_2aH with FcγRIIa H is 106 % of GpH7-A5/GpH7-B3/GpL16-k0 (=100).

B9: GpH7-A5/GpH7-B3 variant P271_01G/GpL16-k0 (antibody, human IgG1, kappa)
heavy 1: not shown
heavy 2: not shown
light: B1 light
notes: also called He Ab P271_01G
Turning to B9, the He/Con_2aH with FcγRIIa H was 107 % of GpH7-A5/GpH7-B3/GpL16-k0 (=100).

B10: GpH7-A5/GpH7-B3 variant S267_02A/GpL16-k0 (antibody, human IgG1, kappa)
heavy 1: not shown
heavy 2: not shown
light: B1 light
notes: also called He Ab S267_02A
On to B10, for which the He/Con_2aH with FcγRIIa H is 120 % of GpH7-A5/GpH7-B3/GpL16-k0 (=100).

B11: GpH7-A5/GpH7-B3 variant S337_10E/GpL16-k0 (antibody, human IgG1, kappa)
heavy 1: not shown
heavy 2: not shown
light: B1 light
notes: also called He Ab S337_10E
For the molecule B11, the He/Con_2aH in the experiment with FcγRIIa H is 102 % of GpH7-A5/GpH7-B3/GpL16-k0 (=100).

B12: GpH7-A5/GpH7-B3 variant S324_02A/GpL16-k0 (antibody, human IgG1, kappa)
heavy 1: not shown
heavy 2: not shown
light: B1 light
notes: also called He Ab S324_02A
As to B12, in the experiment with FcγRIIa H, the He/Con_2aH was 102 % of GpH7-A5/GpH7-B3/GpL16-k0 (=100).

B13: GpH7-B3 variant K326_20W/GpL16-k0 (antibody, human IgG1, kappa)
heavy: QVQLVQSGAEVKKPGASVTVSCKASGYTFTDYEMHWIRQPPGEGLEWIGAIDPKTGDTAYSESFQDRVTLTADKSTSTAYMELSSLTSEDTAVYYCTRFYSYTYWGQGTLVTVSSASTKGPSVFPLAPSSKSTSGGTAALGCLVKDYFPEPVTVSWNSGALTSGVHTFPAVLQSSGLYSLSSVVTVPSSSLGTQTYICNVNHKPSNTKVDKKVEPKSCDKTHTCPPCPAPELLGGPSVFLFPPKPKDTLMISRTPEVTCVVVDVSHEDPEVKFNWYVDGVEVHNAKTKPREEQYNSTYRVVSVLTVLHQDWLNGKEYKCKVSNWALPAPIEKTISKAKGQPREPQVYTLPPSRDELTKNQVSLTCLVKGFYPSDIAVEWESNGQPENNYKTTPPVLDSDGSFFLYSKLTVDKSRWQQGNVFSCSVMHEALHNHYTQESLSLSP
light: B1 light
notes: as for B1
B13: in experiment [1], the Ho/Con_2aR was 120 % of GpH7-B3/GpL16-k0 (=100).

B14: GpH7-A5/GpH7-B3 variant Q295_05P/GpL16-k0 (antibody, human IgG1, kappa)
heavy 1: not shown
heavy 2: not shown
light: B1 light
notes: also called He Ab Q295_05P
For B14, the He/Con_2aH with FcγRIIa H was 103 % of GpH7-A5/GpH7-B3/GpL16-k0 (=100).

B15: GpH7-A5/GpH7-B3 variant L328_14T/GpL16-k0 (antibody, human IgG1, kappa)
heavy 1: not shown
heavy 2: not shown
light: B1 light
notes: also called He Ab L328_14T
Regarding B15, the He/Con_2aH with FcγRIIa H was 116 % of GpH7-A5/GpH7-B3/GpL16-k0 (=100).

B16: GpH7-B3 variant L235_20W/GpL16-k0 (antibody, human IgG1, kappa)
heavy: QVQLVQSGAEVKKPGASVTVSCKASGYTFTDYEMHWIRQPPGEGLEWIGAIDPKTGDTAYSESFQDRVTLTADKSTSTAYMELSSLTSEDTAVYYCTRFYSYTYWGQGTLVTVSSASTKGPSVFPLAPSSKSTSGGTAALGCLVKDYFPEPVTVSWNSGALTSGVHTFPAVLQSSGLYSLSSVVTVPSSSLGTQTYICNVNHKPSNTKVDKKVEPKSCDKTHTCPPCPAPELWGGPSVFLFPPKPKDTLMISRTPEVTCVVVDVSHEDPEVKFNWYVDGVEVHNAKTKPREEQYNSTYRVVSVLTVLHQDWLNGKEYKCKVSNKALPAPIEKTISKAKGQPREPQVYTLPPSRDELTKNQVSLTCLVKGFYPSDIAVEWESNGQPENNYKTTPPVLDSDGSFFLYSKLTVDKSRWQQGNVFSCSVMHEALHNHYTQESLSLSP
light: B1 light
notes: as for B1
Consider B16, for which, in experiment [1], the Ho/Con_2aR was 114 % of GpH7-B3/GpL16-k0 (=100).

B17: GpH7-B3 variant K334_19Q/GpL16-k0 (antibody, human IgG1, kappa)
heavy: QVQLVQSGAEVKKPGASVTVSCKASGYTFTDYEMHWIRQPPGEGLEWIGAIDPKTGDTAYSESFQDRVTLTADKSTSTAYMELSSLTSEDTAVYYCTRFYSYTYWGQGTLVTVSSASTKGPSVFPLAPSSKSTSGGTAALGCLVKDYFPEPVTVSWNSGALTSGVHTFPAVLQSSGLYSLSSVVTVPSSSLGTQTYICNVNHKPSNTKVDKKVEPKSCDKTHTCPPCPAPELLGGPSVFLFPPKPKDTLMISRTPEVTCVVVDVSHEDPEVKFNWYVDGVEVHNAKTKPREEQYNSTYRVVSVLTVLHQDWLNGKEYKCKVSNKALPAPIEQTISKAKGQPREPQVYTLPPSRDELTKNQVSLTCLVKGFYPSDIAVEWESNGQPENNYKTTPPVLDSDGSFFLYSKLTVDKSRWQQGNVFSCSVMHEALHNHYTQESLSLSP
light: B1 light
notes: as for B1
Turning to B17, the Ho/Con_2aR in experiment [1] is 108 % of GpH7-B3/GpL16-k0 (=100).

B18: GpH7-B3 variant L328_14T/GpL16-k0 (antibody, human IgG1, kappa)
heavy: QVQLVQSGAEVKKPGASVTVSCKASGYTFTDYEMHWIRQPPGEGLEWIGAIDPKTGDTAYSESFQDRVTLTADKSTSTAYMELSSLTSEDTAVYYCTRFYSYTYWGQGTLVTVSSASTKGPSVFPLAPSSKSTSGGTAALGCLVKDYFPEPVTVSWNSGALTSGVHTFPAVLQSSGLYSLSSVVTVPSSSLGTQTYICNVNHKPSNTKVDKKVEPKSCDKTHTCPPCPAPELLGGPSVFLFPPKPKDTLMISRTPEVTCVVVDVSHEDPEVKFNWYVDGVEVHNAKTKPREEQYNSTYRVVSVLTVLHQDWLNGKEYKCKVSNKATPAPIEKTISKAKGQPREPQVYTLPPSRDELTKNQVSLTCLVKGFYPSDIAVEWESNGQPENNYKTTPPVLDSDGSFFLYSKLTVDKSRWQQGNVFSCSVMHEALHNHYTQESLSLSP
light: B1 light
notes: as for B1
For B18, the Ho/Con_2aR in experiment [1] was 118 % of GpH7-B3/GpL16-k0 (=100).

B19: GpH7-A5/GpH7-B3 variant S324_06M/GpL16-k0 (antibody, human IgG1, kappa)
heavy 1: not shown
heavy 2: not shown
light: B1 light
notes: also called He Ab S324_06M
B19: the He/Con_2aH with FcγRIIa H is 117 % of GpH7-A5/GpH7-B3/GpL16-k0 (=100).

B20: GpH7-A5/GpH7-B3 variant S324_09D/GpL16-k0 (antibody, human IgG1, kappa)
heavy 1: not shown
heavy 2: not shown
light: B1 light
notes: also called He Ab S324_09D
As to B20, the He/Con_2aH with FcγRIIa H is 106 % of GpH7-A5/GpH7-B3/GpL16-k0 (=100).

B21: GpH7-B3 variant L328_13S/GpL16-k0 (antibody, human IgG1, kappa)
heavy: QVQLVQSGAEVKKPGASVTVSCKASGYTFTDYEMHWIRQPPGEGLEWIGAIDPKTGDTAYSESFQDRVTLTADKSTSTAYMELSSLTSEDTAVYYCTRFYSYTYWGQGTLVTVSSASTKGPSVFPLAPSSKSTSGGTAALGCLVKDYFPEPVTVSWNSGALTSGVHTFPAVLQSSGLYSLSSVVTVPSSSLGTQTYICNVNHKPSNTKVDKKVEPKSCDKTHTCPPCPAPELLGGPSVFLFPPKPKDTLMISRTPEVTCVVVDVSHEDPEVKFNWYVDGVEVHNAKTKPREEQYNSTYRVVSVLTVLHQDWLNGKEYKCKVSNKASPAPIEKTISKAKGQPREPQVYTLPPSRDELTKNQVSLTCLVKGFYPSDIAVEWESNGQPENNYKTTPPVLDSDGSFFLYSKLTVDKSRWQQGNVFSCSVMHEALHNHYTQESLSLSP
light: B1 light
notes: as for B1
On to B21, for which the Ho/Con_2aR in experiment [1] is 108 % of GpH7-B3/GpL16-k0 (=100).

B22: GpH7-A5/GpH7-B3 variant T335_01G/GpL16-k0 (antibody, human IgG1, kappa)
heavy 1: not shown
heavy 2: not shown
light: B1 light
notes: also called He Ab T335_01G
For the molecule B22, in the experiment with FcγRIIa H, the He/Con_2aH is 103 % of GpH7-A5/GpH7-B3/GpL16-k0 (=100).

B23: GpH7-A5/GpH7-B3 variant T335_07I/GpL16-k0 (antibody, human IgG1, kappa)
heavy 1: not shown
heavy 2: not shown
light: B1 light
notes: also called He Ab T335_07I
Consider B23, for which, in the experiment with FcγRIIa H, the He/Con_2aH was 108 % of GpH7-A5/GpH7-B3/GpL16-k0 (=100).

B24: GpH7-A5/GpH7-B3 variant S337_14T/GpL16-k0 (antibody, human IgG1, kappa)
heavy 1: not shown
heavy 2: not shown
light: B1 light
notes: also called He Ab S337_14T
For the molecule B24, the He/Con_2aH in the experiment with FcγRIIa H is 103 % of GpH7-A5/GpH7-B3/GpL16-k0 (=100).

B25: GpH7-B3 variant G237_04F/GpL16-k0 (antibody, human IgG1, kappa)
heavy: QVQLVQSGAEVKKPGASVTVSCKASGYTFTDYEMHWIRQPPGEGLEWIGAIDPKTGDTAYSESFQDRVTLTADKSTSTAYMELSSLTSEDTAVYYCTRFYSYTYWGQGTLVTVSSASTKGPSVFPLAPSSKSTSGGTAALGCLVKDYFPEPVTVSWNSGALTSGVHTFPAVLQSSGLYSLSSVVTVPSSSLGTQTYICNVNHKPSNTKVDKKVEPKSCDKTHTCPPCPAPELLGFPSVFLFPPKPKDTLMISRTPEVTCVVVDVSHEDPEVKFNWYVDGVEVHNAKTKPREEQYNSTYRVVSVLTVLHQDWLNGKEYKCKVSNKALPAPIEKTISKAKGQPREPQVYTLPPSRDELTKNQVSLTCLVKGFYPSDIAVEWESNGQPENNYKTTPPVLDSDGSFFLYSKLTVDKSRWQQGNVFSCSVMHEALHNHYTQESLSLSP
light: B1 light
notes: as for B1
Consider B25, for which the Ho/Con_2aR in experiment [1] is 113 % of GpH7-B3/GpL16-k0 (=100).

B26: GpH7-A5/GpH7-B3 variant L328_02A/GpL16-k0 (antibody, human IgG1, kappa)
heavy 1: not shown
heavy 2: not shown
light: B1 light
notes: also called He Ab L328_02A
Consider B26, for which the He/Con_2aH in the experiment with FcγRIIa H was 130 % of GpH7-A5/GpH7-B3/GpL16-k0 (=100).
